{
  "source": "paper PMC3153048",
  "origin": "cited, not measured here",
  "key": {"[1]": {"biological_target": "ExsD (Pseudomonas aeruginosa) (UniProt Q9I321)", "sequence (Q9I321 whole entry)": "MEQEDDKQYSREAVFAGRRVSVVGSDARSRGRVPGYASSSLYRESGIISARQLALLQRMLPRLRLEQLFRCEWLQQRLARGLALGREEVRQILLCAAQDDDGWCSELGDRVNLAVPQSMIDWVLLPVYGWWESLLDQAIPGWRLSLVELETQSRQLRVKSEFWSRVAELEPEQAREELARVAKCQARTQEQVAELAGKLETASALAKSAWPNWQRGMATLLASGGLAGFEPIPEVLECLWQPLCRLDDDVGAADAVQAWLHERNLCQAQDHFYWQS"}, "[2]": {"biological_target": "ExsE (Pseudomonas aeruginosa) (UniProt Q9I322)", "sequence (Q9I322 whole entry)": "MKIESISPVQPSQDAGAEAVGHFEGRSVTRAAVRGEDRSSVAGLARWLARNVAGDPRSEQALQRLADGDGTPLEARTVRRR"}},
  "data": [
    {"substance": "ExsC (from UniProt P26995)", "values": [
      {"measurement": "Kd", "setting": "[1]", "value": 18, "unit": "nM"},
      {"measurement": "Kd", "setting": "[2]", "value": 1, "unit": "nM"}
    ]}
  ]
}
